This is an account of results in the nanobody polyreactivity screen of Harvey et al. (2022).

The data set is described as follows: yeast display, Sf9 membrane polyspecificity reagent, FACS + sequencing; frameworks hold sequencing errors. Summed up: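 Genes from sorted yeast were amplified by colony PCR, read by MiSeq 2 × 250 sequencing and filtered on CDR length. These cells carried a synthetic nanobody library in Saccharomyces cerevisiae BJ5465 and were sorted by FACS into low and high (top ~1%) gates on anti-HA and streptavidin fluorescence. Polyreactivity is labelled according to the gate of origin.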
Turning to “QVQLVESGGGLVQAGGSLRLSCAASGFTFRTYAMGWYRQAPGKERELVSAITGSGGRTYYADSVKGRFTISRDYAKNTVYLQMNSLKPEDTAVYYCAADYVVPWAFWTFRFDYWGQGTQVTVSS”, the “polyreactivity (PSR sort gate)” value was “low polyreactivity”.

As for “QVQLVESGGGLVQAGGSLRLSCAASGSIFKKYAMGWYRQAPGKERELVAAITRGTYYADSVKGRFTISRDNAKNTVYLQMNSLKPEDTAVYYCNREYWGRGYYRVRGEYDYWGQGTQVTVSS”, the “polyreactivity (PSR sort gate)” value is on record as “low polyreactivity”. Consider “QVQLVESGGGLVQAGGSLRLRCAASGRIFDANAMGWYRQAPGKERELVAAITSRGGTTFYADSVKGRFTISRDNEKNTDYLQMNSLKPEDTAVYYCAADRYYFYRRYDYWGQGTQVTVSS”, for which the “polyreactivity (PSR sort gate)” value is on record as “high polyreactivity”. “QVQLVESGGGLVQAGGSLRLSCAASGRTFARYAMGWYRQAPWKERELVAAISRGGDSTYYADSVKGRFTISRDNAKNNVYLQMNSLKPEDTADYYCNAYVILALGYGGYDYWGQGTQVTVSS”: the “polyreactivity (PSR sort gate)” value is reported as “high polyreactivity”.

On to “QVQLVESGGGLVQAAGSLRLSCAASGITFVTYDRGWYRQAPGKEWELVAAISRSGVRTYYADSVKWRFTISRDNAKNTVYLQMNSLKPEDTAVYYCAAERKNKYDYWGLGTQVTVSS”, for which the “polyreactivity (PSR sort gate)” value is recorded as “high polyreactivity”. In the case of “QVQLVESWGGLVQAGGSLRLSCAASGYTFSAYAMGWYRQAPGKERELVAAISWSGASTSYADSVKGRFTISRDNAKNTVYLQMNSLKPEDTAVYYCAARRLHYQFKYYSWGQGTQVTVSS” it was “high polyreactivity”; in that of “QDQLVESGGGLVQAGGSLRLSCAASGRIFFTNAMGWYRQAPGKERELVASIDDTGSTNYADSVKGRFTISRDNAKNTVYLQMNSLKPEDTATSTQGDYWGQGTQVTVSS”, “low polyreactivity”. Take “QVQLVESGGGIVQAGGSLRLSCAASGRILGANDMGWYRQAPGTERELVAAITSGGRTYYADSVKGRFTISRDNAKNTVYLQMNCLKPEDTAVYYCAVGGWDESVGKGYDYWGQGTQVTVSS”: the “polyreactivity (PSR sort gate)” value was “low polyreactivity”.

On to “QVQLVESGGGLVQAGGSLRLSCAASGITFKGYTMGWYRQAPGKEREFVAAISWGGGRTYYADSVKGRFTISRDNAKNTVYLQMNSLKPEDTAVYYCNGAPYTRALQGEFDYWGQGTQVTVSS”, for which the “polyreactivity (PSR sort gate)” value is reported as “high polyreactivity”. On to “QVQLVESGGGLVQAGGSLRLSCAASGRIFPYMGWYRQAPGKERELVAAISSRGGNTYYADSVKGRFTISRDNAKNTVYLQMNSLKPEDTAVYYCNKVKYTWYDWGQGTQVTVSS”, for which the “polyreactivity (PSR sort gate)” value is reported as “high polyreactivity”. In the case of “QVQLQESGGGLVQAGGSLRLSCAASGTISPLPAMGWYRQAPGKEREFVAGIDTGAITNYADSVKGRFTISRDNAKNTVYLQMNSLIAEDTAVYYCAVFPAAYDYYERYYTYWGQGTQVTVSS” it was “low polyreactivity”; in that of “QVQLVESGGGLVQAGGSLRLSCAASGSIFGYYGMGCYIQAPGKERELVAAISARGGSTYYADSVKGRFTISRDNAKNTVYFQMNRLKPEDTAVYYCAVRYPGSRYLISKNGYWGQGTQVTVSS”, “high polyreactivity”. With “QVQLVESGGGLVQAGGSLRLSCAASGRIFLNYAMGWYRQAPGKERELDAAISRRGASTYYADSVKGRFTISRENAKNTVYLQMNSLKPEDTAVYYCATVPGKSGDYWGLGTQVTVSS”, the “polyreactivity (PSR sort gate)” value is listed as “high polyreactivity”. As for “QVQLVESGGGLVQAGGSLRLSCAASGYIFSGYAMGWYRQAPGKERELVAAISSSGGRTYYADSVKGRFTISRDNAKNTVYLQMNSLKPEDTAVYYCAADAVYYHFDYWGQGTQVTVSS”, the “polyreactivity (PSR sort gate)” value was “high polyreactivity”. “QVQLVESGGGLVQAGGSLRLSCAASGFIFSYYAMGWYRQAPGKERELVAAISRNGGRTYYADSVKGRFTISRDNAKNTVYLQMNSLIPEDTAVYYCAATTYRTSSYIRYGSPKHDDYWGQGTHVTVSS”: the “polyreactivity (PSR sort gate)” value is recorded as “high polyreactivity”.

With “QVQLVESGGGLVQAGGSLRLSCATSGSTFNDYDMGWYRQAPGKERELVAAISSSVSTYYADSVKGRFTISRDNAKNTVYLQMNSLKQEDTAVYYCAADYTGVCRYDYWGQGTLVTVSS”, the “polyreactivity (PSR sort gate)” value is reported as “low polyreactivity”.
